Target: RPA-MeGFP (Saccharomyces cerevisiae) (UniProt P22336+P26754+P26755)
Test: single-molecule ssDNA curtains (TIRFM)
Details: 10 pM then 100 pM RPA; EMSA: 20 mM Tris-HCl pH 7.5, 150 (or 15) mM KCl, 1 mM DTT, 100 ug/mL BSA, 5 nM DNA, 30 C 10 min; curtains: 40 mM Tris-HCl pH 7.5, 150 or 15 mM NaCl, 2 mM …

Sequence of RPA-MeGFP (Saccharomyces cerevisiae) (P22336 whole entry, chain 1 of 3): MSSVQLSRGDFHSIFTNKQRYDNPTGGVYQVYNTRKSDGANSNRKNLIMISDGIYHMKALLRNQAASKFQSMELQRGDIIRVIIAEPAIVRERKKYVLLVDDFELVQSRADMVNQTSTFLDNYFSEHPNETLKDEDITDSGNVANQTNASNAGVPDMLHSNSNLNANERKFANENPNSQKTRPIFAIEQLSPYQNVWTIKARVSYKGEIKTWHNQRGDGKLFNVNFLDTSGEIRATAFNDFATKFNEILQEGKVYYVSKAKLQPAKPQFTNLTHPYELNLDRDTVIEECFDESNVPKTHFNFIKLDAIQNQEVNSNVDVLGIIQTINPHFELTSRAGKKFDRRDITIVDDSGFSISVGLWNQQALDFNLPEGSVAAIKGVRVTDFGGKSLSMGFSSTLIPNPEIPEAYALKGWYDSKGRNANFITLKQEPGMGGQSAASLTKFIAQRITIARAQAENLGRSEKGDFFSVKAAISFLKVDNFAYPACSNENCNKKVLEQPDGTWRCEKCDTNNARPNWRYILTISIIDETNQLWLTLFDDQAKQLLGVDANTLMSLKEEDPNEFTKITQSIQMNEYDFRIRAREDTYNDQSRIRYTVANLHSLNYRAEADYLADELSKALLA
Sequence of RPA-MeGFP (Saccharomyces cerevisiae) (P26754 whole entry, chain 2 of 3): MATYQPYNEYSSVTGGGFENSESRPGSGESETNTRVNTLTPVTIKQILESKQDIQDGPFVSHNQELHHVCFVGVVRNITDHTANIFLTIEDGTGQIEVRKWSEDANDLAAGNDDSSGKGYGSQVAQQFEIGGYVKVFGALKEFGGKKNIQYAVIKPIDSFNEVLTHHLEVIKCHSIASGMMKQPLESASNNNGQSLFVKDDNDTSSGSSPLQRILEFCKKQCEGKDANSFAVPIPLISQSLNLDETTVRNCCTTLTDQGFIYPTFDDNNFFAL
Sequence of RPA-MeGFP (Saccharomyces cerevisiae) (P26755 whole entry, chain 3 of 3): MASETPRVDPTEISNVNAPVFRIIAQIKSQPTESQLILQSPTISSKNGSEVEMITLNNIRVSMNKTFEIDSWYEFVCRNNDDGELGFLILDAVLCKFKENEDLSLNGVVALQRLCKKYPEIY

M13 ssDNA
binding signal (% length extension): 359

Source: article PMC10313831
